These are literature values, as cited in article PMC9499636.

The target in data set [1] is Ship2 Sam (Homo sapiens) (UniProt O15357). As to the kind of experiment: SPR. (In SPR one partner is held on a chip, and binding of the other changes the refractive index at the surface.)
The target is the same in data set [2]. As to the kind of experiment: ITC. (In general: Isothermal titration calorimetry measures the heat released or taken up as one component is titrated into another.)
Data set [3] concerns the target EphA2 Sam (Homo sapiens) (UniProt P29317). As to the kind of experiment: SPR.
Data set [4] shares this target. The data set can be described thus: ITC.
Data set [5] has as its target EphA2-Sam Sam (Homo sapiens) (UniProt P29317). As to the kind of experiment: SPR.

Chain of UniProt O15357 (O15357 1193-1258): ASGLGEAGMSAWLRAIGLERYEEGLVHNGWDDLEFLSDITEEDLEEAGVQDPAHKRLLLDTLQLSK

Broadly, the Kd is the constant that tells how readily two partners part at equilibrium. Regarding EphA2 Sam (from UniProt P29317), the figures for the Kd in data set [1] and in data set [2] were 2.2 µM and 0.75 µM, respectively. As for Odin Sam1 (from UniProt Q92625), the Kd in data set [3] was 5.5 µM; in data set [4], 0.62 µM. Turning to Pep2 (from UniProt Q92625), the Kd in data set [5] was 222 µM.

Turning to Pep3 (from UniProt Q92625), in data set [5], the Kd was 523 µM.
